B1: Tumor necrosis factor receptor superfamily member 6 (Homo sapiens), P25445 (parent)
chain: MLGIWTLLPLVLTSVARLSSKSVNAQVTDINSKGLELRKTVTTVETQNLEGLHHDGQFCHKPCPPGERKARDCTVNGDEPDCVPCQEGKEYTDKAHFSSKCRRCRLCDEGHGLEVEINCTRTQNTKCRCKPNFFCNSTVCEHCDPCTKCEHGIIKECTLTSNTKCKEEGSRSNLGWLCLLLLPIPLIVWVKRKEVQKTCRKHRKENQGSHESPTLNPETVAINLSDVDLSKYITTIAGVMTLSQVKGFVRKNGVNEAKIDEIKNDNVQDTAEQKVQLLRNWHQLHGKKEAYDTLIKDLKKANLCTLAEKIQTIILKDITSDSENSNFRNEIQSLV

Variants of: B1
Settings: with ptn13_human PTPN13, Q12923
ptn13_human PTPN13, Q12923, sequence (Q12923 whole entry): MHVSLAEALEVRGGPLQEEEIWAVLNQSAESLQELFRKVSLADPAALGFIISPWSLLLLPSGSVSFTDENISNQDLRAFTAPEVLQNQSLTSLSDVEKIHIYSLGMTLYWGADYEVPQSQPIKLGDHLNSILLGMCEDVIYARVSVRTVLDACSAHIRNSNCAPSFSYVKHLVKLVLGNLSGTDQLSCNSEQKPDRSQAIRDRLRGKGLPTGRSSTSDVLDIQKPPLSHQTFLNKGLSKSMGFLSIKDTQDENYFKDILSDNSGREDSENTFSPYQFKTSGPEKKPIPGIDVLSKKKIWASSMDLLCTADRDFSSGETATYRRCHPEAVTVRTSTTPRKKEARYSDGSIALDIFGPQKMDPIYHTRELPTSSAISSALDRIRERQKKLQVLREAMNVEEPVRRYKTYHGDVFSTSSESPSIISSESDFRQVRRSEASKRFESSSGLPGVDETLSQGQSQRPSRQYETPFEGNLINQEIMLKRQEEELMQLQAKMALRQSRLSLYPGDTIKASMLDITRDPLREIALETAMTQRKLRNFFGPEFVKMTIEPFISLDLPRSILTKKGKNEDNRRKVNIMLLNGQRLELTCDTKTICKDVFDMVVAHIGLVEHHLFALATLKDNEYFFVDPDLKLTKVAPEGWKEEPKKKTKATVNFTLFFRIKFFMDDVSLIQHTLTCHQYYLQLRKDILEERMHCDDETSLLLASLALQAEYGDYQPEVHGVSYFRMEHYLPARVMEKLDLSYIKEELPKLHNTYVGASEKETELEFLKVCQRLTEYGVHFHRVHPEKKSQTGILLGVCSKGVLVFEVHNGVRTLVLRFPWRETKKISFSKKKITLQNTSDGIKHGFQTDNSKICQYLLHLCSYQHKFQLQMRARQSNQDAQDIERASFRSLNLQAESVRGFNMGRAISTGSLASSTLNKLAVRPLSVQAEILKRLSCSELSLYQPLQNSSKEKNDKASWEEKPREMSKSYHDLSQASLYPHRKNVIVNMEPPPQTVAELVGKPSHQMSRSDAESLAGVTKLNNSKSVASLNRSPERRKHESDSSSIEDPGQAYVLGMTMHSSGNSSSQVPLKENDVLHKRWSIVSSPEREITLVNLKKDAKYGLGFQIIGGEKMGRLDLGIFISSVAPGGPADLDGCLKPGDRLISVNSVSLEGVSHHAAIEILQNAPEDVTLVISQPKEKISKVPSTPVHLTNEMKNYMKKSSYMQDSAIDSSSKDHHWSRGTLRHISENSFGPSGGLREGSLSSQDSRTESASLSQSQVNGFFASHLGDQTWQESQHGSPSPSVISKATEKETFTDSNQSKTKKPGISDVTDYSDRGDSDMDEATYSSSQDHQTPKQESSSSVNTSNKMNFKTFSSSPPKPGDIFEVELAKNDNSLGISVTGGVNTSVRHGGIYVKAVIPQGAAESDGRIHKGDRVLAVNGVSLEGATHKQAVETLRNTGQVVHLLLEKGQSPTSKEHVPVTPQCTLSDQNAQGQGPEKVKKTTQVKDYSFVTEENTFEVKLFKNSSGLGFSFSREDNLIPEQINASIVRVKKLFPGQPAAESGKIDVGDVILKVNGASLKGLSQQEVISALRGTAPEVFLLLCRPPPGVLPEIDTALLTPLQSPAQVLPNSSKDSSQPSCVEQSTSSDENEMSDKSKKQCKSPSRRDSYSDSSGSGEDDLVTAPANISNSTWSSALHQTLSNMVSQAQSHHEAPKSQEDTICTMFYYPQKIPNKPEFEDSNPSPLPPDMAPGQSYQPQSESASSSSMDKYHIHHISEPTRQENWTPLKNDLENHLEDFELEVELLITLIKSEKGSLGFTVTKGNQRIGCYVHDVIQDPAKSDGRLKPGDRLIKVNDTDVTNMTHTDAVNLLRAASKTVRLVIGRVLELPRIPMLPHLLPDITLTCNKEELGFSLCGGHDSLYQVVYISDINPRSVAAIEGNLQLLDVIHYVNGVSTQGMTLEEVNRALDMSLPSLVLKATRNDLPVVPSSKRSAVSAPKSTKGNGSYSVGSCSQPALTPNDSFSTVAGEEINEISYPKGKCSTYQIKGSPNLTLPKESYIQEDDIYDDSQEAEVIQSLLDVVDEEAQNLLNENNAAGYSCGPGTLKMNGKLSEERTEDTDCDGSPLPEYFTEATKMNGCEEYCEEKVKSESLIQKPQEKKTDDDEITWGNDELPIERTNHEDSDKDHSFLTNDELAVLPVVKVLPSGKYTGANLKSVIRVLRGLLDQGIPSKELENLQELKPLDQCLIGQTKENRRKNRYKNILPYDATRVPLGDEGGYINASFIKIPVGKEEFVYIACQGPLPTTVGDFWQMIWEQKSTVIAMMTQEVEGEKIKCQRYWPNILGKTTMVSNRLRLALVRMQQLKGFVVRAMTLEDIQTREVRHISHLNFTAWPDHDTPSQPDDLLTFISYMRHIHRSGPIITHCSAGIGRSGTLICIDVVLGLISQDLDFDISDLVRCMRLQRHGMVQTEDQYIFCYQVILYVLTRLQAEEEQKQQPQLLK

Row | Variant | effect of a mutation on the interaction
1 | S333P | decreasing interaction

From IntAct's records for PubMed 10918185
